{"source": "paper PMC9816786", "about": "(2022)", "assay_in_all_cases": "BLI", "key": {"P1.40 D62A": {"target": "P1.40 D62A"}, "P1.40 R43A": {"target": "P1.40 R43A"}, "P1.40 F110A": {"target": "P1.40 F110A"}, "P1.40 D89A": {"target": "P1.40 D89A"}, "P1.40 T109A": {"target": "P1.40 T109A"}, "P1.40 R111A": {"target": "P1.40 R111A"}, "P1.40 E46A": {"target": "P1.40 E46A"}, "P1.40 E44A": {"target": "P1.40 E44A"}}}
{"binder": "CHRD (aa 449–693) of human PCSK9, 6xHis-tagged (domain or fragment, biotinylated where it was immobilised for BLI (site not told)) HGAGWQLFCRTVWSAHSGPTRMATAVARCAPDEELLSCSSFSRSGKRRGERMEAQGGKLVCRAHNAFGGEGVYAIARCCLLPQANCSVHTAPPAEASMGTRVHCHQQGHVLTGCSSHWEVEDLGTHKPPVLRPRGQPNQCVGHREASIHASCCHAPGLECKVKEHGIPAPQEQVTVACEEGWTLTGCSALPGTSHVLGAYAVDNTCVVRSRDVSTTGSTSEGAVTAVAICCRSRHLAQASQELQ", "values": [{"measurement": "Kd", "setting": "P1.40 D62A", "value": 1.26, "unit": "nM"}, {"measurement": "koff", "setting": "P1.40 D62A", "value": 0.000668, "unit": "s⁻¹"}, {"measurement": "Kd", "setting": "P1.40 R43A", "value": 2.86, "unit": "nM"}, {"measurement": "koff", "setting": "P1.40 R43A", "value": 0.00141, "unit": "s⁻¹"}, {"measurement": "Kd", "setting": "P1.40 F110A", "value": "> 1000", "unit": "nM"}, {"measurement": "koff", "setting": "P1.40 F110A", "value": "> 0.001", "unit": "s⁻¹"}, {"measurement": "Kd", "setting": "P1.40 D89A", "value": 2.79, "unit": "nM"}, {"measurement": "koff", "setting": "P1.40 D89A", "value": 0.000882, "unit": "s⁻¹"}, {"measurement": "Kd", "setting": "P1.40 T109A", "value": "> 1000", "unit": "nM"}, {"measurement": "koff", "setting": "P1.40 T109A", "value": "> 0.001", "unit": "s⁻¹"}, {"measurement": "Kd", "setting": "P1.40 R111A", "value": 3.49, "unit": "nM"}, {"measurement": "koff", "setting": "P1.40 R111A", "value": 0.00147, "unit": "s⁻¹"}, {"measurement": "Kd", "setting": "P1.40 E46A", "value": 1.22, "unit": "nM"}, {"measurement": "koff", "setting": "P1.40 E46A", "value": 0.00064, "unit": "s⁻¹"}, {"measurement": "Kd", "setting": "P1.40 E44A", "value": 0.477, "unit": "nM"}, {"measurement": "koff", "setting": "P1.40 E44A", "value": 0.000359, "unit": "s⁻¹"}]}
